This note sets out measurements from the RNAGym collection of RNA variant scans (doi:10.7554/elife.80360).

The labels stand for the following.
B1: Hairpin Ribozyme (parent)
chain: GUCCUCUUUCACGUGCGCGUGAAAGAGAGAAGUGAACCAGAGAAACACACGUUGUGGUAUAUUACCUGGUA

The series covers variants of B1. Kind of series: self-cleavage, relative activity (ratio to wild type); higher = more cleavage; co-transcriptional.
Turning to U63A A71U, the self-cleavage turned out to be 0.182.
The same measure for U63A A71G: 0.221; for U62C: 0.268.
On to U62G, for which the self-cleavage came to 0.179.
Consider U62A, for which the self-cleavage came out at 0.185.
The same measure for U63G U70A: 0.0931; for C65G U67A: 0.0982.
Turning to U63C G68U, the self-cleavage came out at 0.351.
Consider C65U A71C, for which the self-cleavage turned out to be 0.774.
In the case of C65U A71G, the self-cleavage was 0.467.
For the variant U70G A71U, the self-cleavage came to 1.26.
For U70G A71C, the self-cleavage was 1.74.
For A61U A64C, the self-cleavage stood at 0.197.
With A61U A64G, the self-cleavage was found to be 0.121.
In the case of C66A U70A, the self-cleavage is 0.279.
Turning to U67G A71U, the self-cleavage worked out at 0.918.
In the case of A64G C66A, the self-cleavage came out at 0.211.
As to A64G C66U, the self-cleavage turned out to be 0.109.
In the case of C66G G69A, the self-cleavage turned out to be 0.185.
In the case of A64C U67A, the self-cleavage worked out at 0.0615.
In the case of U62C A64G, the self-cleavage is 0.18.
Consider U63C C66G, for which the self-cleavage was found to be 0.244.
Under U63C C66U stands 0.165; under G68C A71U, 0.126.
Take U62C G69U: the self-cleavage amounted to 0.169.
As to U62G U70G, the self-cleavage stood at 0.352.
For the variant U62G U70C, the self-cleavage was 0.18.
For the variant A64U G69U, the self-cleavage was found to be 0.281.
Consider C66A, for which the self-cleavage worked out at 0.218.
Take C66G: the self-cleavage was determined as 0.181.
Turning to C66U, the self-cleavage turned out to be 0.527.
U62C U67C: the self-cleavage amounted to 0.121.
Consider U62C U67G, for which the self-cleavage was determined as 0.265.
Regarding U62A C66G, the self-cleavage is 0.188.
The same measure for G68A A71C: 0.348; for G68A G69U: 0.172; for C65U G69A: 0.193.
As for C65U G69C, the self-cleavage is 0.0941.
In the case of U70C A71G, the self-cleavage amounted to 1.85.
On to U63G G69A, for which the self-cleavage worked out at 0.102.
On to U63G G69U, for which the self-cleavage stood at 0.169.
As for G68U U70G, the self-cleavage is 0.252.
For the variant U62A C65G, the self-cleavage was 0.101.
Under U63C U67C stands 0.148.
Under U63C U67A stands 0.21; under U63C U67G, 0.111.
As to A61G U62A, the self-cleavage turned out to be 0.198.
As to A61G U67G, the self-cleavage is 0.157.
With A61G U67C, the self-cleavage came out at 0.113.
Take A61G A71U: the self-cleavage was determined as 0.393.
Take A61C U70G: the self-cleavage worked out at 0.146.
Consider A61U G68U, for which the self-cleavage was found to be 0.153.
With A61U G69C, the self-cleavage was found to be 0.283.
Under A61U G69U stands 0.152.
A61U G69A: the self-cleavage came to 0.145.
Consider A64U C65U, for which the self-cleavage worked out at 0.194.
Take A64U C65A: the self-cleavage came to 0.187.
U63G A71C: the self-cleavage stood at 0.565.
Take U63G A71G: the self-cleavage was determined as 0.226.
In the case of U63G U67G, the self-cleavage amounted to 0.134.
As for C65A U70C, the self-cleavage was determined as 0.692.
For C65A U70G, the self-cleavage stood at 0.562.
The same measure for A61G U63G: 0.0586; for A61G U63C: 0.253; for A61G U63A: 0.144.
The same measure for A61G C66U: 0.277.
For U62A U63A, the self-cleavage stood at 0.12.
As for U62A U63G, the self-cleavage worked out at 0.112.
On to U62A U63C, for which the self-cleavage stood at 0.113.
Regarding U63C A71C, the self-cleavage stood at 0.578.
In the case of C65U U70A, the self-cleavage was 0.379.
Consider U67C G69U, for which the self-cleavage amounted to 0.147.
Under C65G U70A stands 0.197; under U67A A71U, 0.194; under U67A A71G, 0.196.
With U62A A64C, the self-cleavage amounted to 0.164.
With C66U G68C, the self-cleavage came out at 0.202.
Consider A61G A64G, for which the self-cleavage amounted to 0.141.
A64U G68U: the self-cleavage was determined as 0.23.
In the case of C65A C66U, the self-cleavage came out at 0.508.
As for U63C C65G, the self-cleavage was determined as 0.117.
On to U63G G68A, for which the self-cleavage was determined as 0.281.
Turning to U63G G68U, the self-cleavage came to 0.225.
Turning to C66G G68A, the self-cleavage came to 0.123.
Consider G68C U70A, for which the self-cleavage was 0.143.
In the case of A61U C65A, the self-cleavage amounted to 0.107.
In the case of A64U U70C, the self-cleavage is 0.0932.
In the case of A64G C65G, the self-cleavage came to 0.101.
On to A64G C65A, for which the self-cleavage came out at 0.139.
As to A64G C65U, the self-cleavage turned out to be 0.215.
C65U C66G: the self-cleavage amounted to 0.248.
For the variant A61U U63C, the self-cleavage was 0.0398.
Take A61U U63G: the self-cleavage is 0.187.
Under A61U A71G stands 0.275; under A61U A71C, 0.468.
Under U63G C65A stands 0.0995.
In the case of U63G C65G, the self-cleavage was found to be 0.243.
The same measure for C65G C66A: 0.142; for U67C G68U: 0.208.
In the case of U67C G68A, the self-cleavage turned out to be 0.231.
For the variant U62A U67C, the self-cleavage worked out at 0.134.
For the variant U62A U67A, the self-cleavage was 0.134.
Regarding U62C G68U, the self-cleavage came out at 0.178.
Under U62C C65G stands 0.132.
Under A64G G69A stands 0.121.
Regarding A64G G69C, the self-cleavage was 0.142.
As to A61G G69C, the self-cleavage amounted to 0.156.
On to A61G G69U, for which the self-cleavage came out at 0.128.
On to U63A C66U, for which the self-cleavage is 0.258.
A64U C66U: the self-cleavage is 0.11.
For the variant U62G G68A, the self-cleavage is 0.263.
In the case of G68C G69U, the self-cleavage turned out to be 0.17.
A64U U67C: the self-cleavage is 0.213.
The same measure for A61G U70A: 0.154; for G69U U70G: 0.299.
The same measure for C66U U70G: 0.297.
Turning to G68U A71U, the self-cleavage came to 0.234.
In the case of A64G U70C, the self-cleavage worked out at 0.61.
With U63A C65U, the self-cleavage stood at 0.0803.
Turning to C66U U67G, the self-cleavage was 0.0789.
Under C66A A71G stands 0.196; under A61U U62A, 0.139.
Take C65G G69C: the self-cleavage turned out to be 0.219.
Under C65G G69U stands 0.156; under U63A G69U, 0.17; under C65G, 0.273.
C65A: the self-cleavage stood at 0.989.
Under C65U stands 0.323; under A64C A71U, 0.243; under C65A G69C, 0.224.
Regarding C65A G69U, the self-cleavage was 0.235.
As to U62A A71G, the self-cleavage came to 0.211.
Take U67A G69C: the self-cleavage came to 0.258.
Turning to U63A U67A, the self-cleavage was 0.208.
Under U63A U67G stands 0.118.
For U63A U67C, the self-cleavage came to 0.14.
U63G C66G: the self-cleavage stood at 0.125.
In the case of U63C U70C, the self-cleavage worked out at 0.19.
A61G G68A: the self-cleavage worked out at 0.275.
Consider A61G G68U, for which the self-cleavage was found to be 0.163.
Consider C66G A71U, for which the self-cleavage worked out at 0.168.
Under C66G A71C stands 0.35; under C66G A71G, 0.16; under G69U A71C, 1.38.
Turning to G69U A71U, the self-cleavage came out at 0.362.
As to G69U A71G, the self-cleavage amounted to 0.438.
Turning to U63A A64C, the self-cleavage came to 0.0838.
Take A64C G69A: the self-cleavage is 0.251.
Regarding A64C G69U, the self-cleavage is 0.234.
The same measure for U62A U70C: 0.219.
Under C66G U67A stands 0.17.
Under U67G G68U stands 0.192; under C66A U67A, 0.234.
Turning to A64C U70A, the self-cleavage came out at 0.4.
With U63C A64G, the self-cleavage is 0.0805.
As to U63A U70G, the self-cleavage stood at 0.151.
Turning to C65G G68U, the self-cleavage is 0.102.
Turning to C65G G68A, the self-cleavage came to 0.254.
As for C65A U67C, the self-cleavage was 0.228.
In the case of C65A U67A, the self-cleavage is 0.141.
The same measure for C65A G68U: 0.292; for C65A G68C: 0.224; for U62G G69U: 0.165.
On to U62G G69C, for which the self-cleavage is 0.217.
For the variant U62G G69A, the self-cleavage worked out at 0.0955.
G69C U70C: the self-cleavage was found to be 0.685.
Turning to G69C U70A, the self-cleavage stood at 0.437.
For the variant A61G C65U, the self-cleavage turned out to be 0.192.
With C65A A71U, the self-cleavage came to 0.7.
As for C65A A71G, the self-cleavage worked out at 0.93.
As to G69A A71G, the self-cleavage amounted to 0.358.
Turning to U62G C66A, the self-cleavage worked out at 0.207.
For U67C U70A, the self-cleavage was determined as 0.229.
The same measure for U67C U70C: 0.279; for U67C U70G: 0.269; for A64U A71C: 0.494.
